The supplement of paper PMC12042874
± gives the uncertainty stated by the source.

Experiment: amyloid nucleation score (Sup35N fusion, yeast selection) (log enrichment); library NNK1; higher = more nucleation; inactive = no reads after selection
Summary of the method: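 Nucleation score is defined as the DiMSum log enrichment of output over input reads, with centring on the mode score of non-aggregating sequences. A minimum of 100 input reads was required for each sequence. Reads came from Illumina sequencing of plasmid inserts from psi-negative yeast expressing Sup35N fused to peptides of 20 random codons, induced with 100 μM copper sulfate for 24 hours and grown 7 days at 30°C on medium lacking adenine and uracil.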

Substance | amyloid nucleation score
GGLILYKKNREFSSLQFSCV | -0.523 ± 0.46
GGQITYPMDLKVGRLCEDAL | inactive
GGSRTIVP | 0.411 ± 0.48
GGTCVRQFMVLDTHSHADEC | 0.66 ± 0.56
GGYGCDGCLSNCMRLNGVWV | inactive
GGYVIF | 0.212 ± 0.56
GHDVWKANSLTRVKLREYYG | 0.546 ± 0.35
GHHVRLLFLCVHTISYMESR | 0.582 ± 0.9
GHRVAGCFSMSGVG | 1.25 ± 0.44
GHTLRDVWASVEVRSNVDLD | 0.54 ± 0.82
GHYRFVSFRFSWAEGAQLRG | 1.68 ± 0.25
GICCYNFGRCKMRASPGLCG | -0.999 ± 1.3
GIFDLLYWLRELSLRKA | 1.14 ± 0.39
GIGFFRCCLYRMFRYTRLSH | 0.365 ± 0.23
GIIFGMKVGWK | 0.385 ± 0.31
GILKCAYKT | 0.664 ± 0.66
GIPYSVDGYVLVDVSITTIA | inactive
GISNSMVRHYLCTTFIYKDA | 3.51 ± 0.066
GIVHAPCDFHTSSFWW | -0.147 ± 0.84
GIWVGHESVVIIVDMLYMLL | 5.493 ± 0.046
GKCLIMKQRLALKSFFNFQC | inactive
GKEYYAIPMKNDGIARVNLR | 0.875 ± 0.28
GKFVFWWVRSVYDQMAVPGM | -0.546 ± 1.1
GKLSSLLMFCRNSLFVGFLG | -0.086 ± 0.35
GKSTCFSMKQECLAEREEEG | 0.257 ± 0.81

Substance | amyloid nucleation score
GKYKI | -0.476 ± 0.63
GLAASHSTSCSSYMISCWSR | -0.055 ± 0.55
GLCGVILCELISNVREGKSK | 4.97 ± 0.084
GLCTTCF | 0.126 ± 0.64
GLECD | 0.469 ± 0.43
GLHREATSYLNRLFRINSG | -0.48 ± 0.56
GLKLKIREYSAFLCR | -0.027 ± 0.36
GLLFVKGTVDRQAWSGFEAH | -0.796 ± 1.2
GLLNR | 0.435 ± 0.19
GLLTMIPKDYNCRISYLVHT | 0.015 ± 0.64
GLQKSVEGNYMTFLSFSLAM | 5.03 ± 0.052
GLVFTLWSASRCFFLRKKLW | -0.083 ± 0.83
GLVHEAHLDANKFFH | -0.139 ± 0.71
GLVHYMLLDPLAVNLSGCND | -0.301 ± 0.3
GLVNFTVVLTFV | 2.82 ± 0.3
GLVSRIAGLIHEIDGRFWMQ | inactive
GLWIRFIAVTSSSVEIRANS | -0.776 ± 0.62
GLYPKYNVGLNN | -0.376 ± 0.56
GMARHEMRGGMHSTLLRLTA | 0.735 ± 0.91
GMDTGNITAQSMAGLPRRAS | -0.299 ± 0.49
GMDTYLMETLCSTVNLRCHA | -0.604 ± 1
GMFNLLH | inactive
GMSGGWPIYKLGSS | 1.05 ± 0.25
GMSSRMPQLNSWEPRGGDSG | -0.144 ± 0.83
GMSVNVWMYSSLGVFCLIYV | -0.107 ± 0.2

Substance | amyloid nucleation score
GMVLEWWIFMFGVPFSSDRA | -0.122 ± 0.74
GNCGET | 0.311 ± 0.41
GNCKGKRPSRGGRCSGQ | 1.2 ± 0.58
GNDGENLMSWTIVWNFIVG | 4.33 ± 0.062
GNDIEAIKHSGLLLSSWTMG | -0.253 ± 1.2
GNFGWHSLSYRDNYICSWAL | 4.43 ± 0.068
GNFLFCTVDRHLTGSCS | 0.589 ± 0.47
GNGVLAVTVSFAGTSLSLRF | -0.047 ± 1.4
GNLGI | -0.31 ± 0.59
GNLLVMVGNMRSIDKC | 0.326 ± 0.3
GNNFFIIVAVLTQKNSAVRV | 1.19 ± 0.22
GNNGVEKPKNHISGELFGTN | -0.138 ± 0.35
GNRSSS | inactive
GNTVQLGRAGRFHVYDLRGV | -0.357 ± 0.6
GPCGTLSI | -0.541 ± 0.84
GPIRDKSELAYMLPFEVMYT | 0.565 ± 0.67
GPLFYNTM | 0.159 ± 1.2
GPLKPFNASLVGTGAVLHGE | 0.034 ± 0.52
GPLSKGIFDRFMDPHRYFKY | -0.024 ± 0.61
GPPLWADNKVVLIR | -0.878 ± 0.94
GQDDYLWRRSGLDHNHSSSS | -0.568 ± 0.37
GQGALDYF | inactive
GQGALRVDCLVHRQVVSVVL | 0.176 ± 0.62
GQKYHINVRERLNNLFGDCV | 0.537 ± 0.35
GQSKLVLHFAILTVVAWPFD | 0.385 ± 0.51

Substance | amyloid nucleation score
GRAWCFY | 0.15 ± 0.33
GRFRLVMVFCAGNGNAGGER | 1.52 ± 0.52
GRIVVTSQFMMIGRWGSPPP | 3.29 ± 0.1
GRLCCRPVWYTISCKLWVNE | 1.04 ± 0.49
GRLSYIIRSYSLIRV | -1.21 ± 0.5
GRLVVIAYQMQSCDSTMD | -0.115 ± 0.42
GRMEGTGNYMVYKDQEGVNG | inactive
GRMGVSSWAGSQRVLIGENL | 1.47 ± 0.3
GRRTAI | -0.069 ± 0.66
GRSFGQSGRISRAGNVGIIC | -0.266 ± 0.38
GRTSCLKRGISKEASLTGS | 1.25 ± 0.53
GRTYDDYGHVIYRSWLPSLH | -0.274 ± 1.4
GRVLYKSCALNNFSIMQVLC | 4.61 ± 0.1
GRYVSSWFWFRFMQVQANTN | 0.248 ± 0.31
GSFFTKDSDTP | 0.373 ± 0.46
GSGSYRGTRLECLCFW | 0.025 ± 1.1
GSKTRAKLSLGCPKFLDAKG | 0.457 ± 0.73
GSLFWEVMKVMADGMCDVSL | 0.59 ± 0.54
GSNIVSEYERLGRIMSV | -0.509 ± 1.2
GSWYHDRVSLCFFIFDCG | 4.82 ± 0.076
GTATLSHTCKHTPLRDTRLV | -0.16 ± 0.32
GTDPGY | -0.706 ± 0.6
GTDVQEWLAYCCAIIYAF | 0.332 ± 0.72
GTDYVEGCCSLNFRCCCVNG | 5.117 ± 0.05
GTGLSENRLSKYCWALLWSY | inactive

Substance | amyloid nucleation score
GTIVEWAT | inactive
GTLPLKDKGPYRDL | -1.08 ± 1.4
GTLRHDVMRQLTFLCYFINL | 0.047 ± 0.72
GTMKWALYSDYLSSTFTIYH | 0.137 ± 0.26
GTNYYSSGML | 0.114 ± 0.35
GTQMVLFDY | 1.12 ± 0.58
GTSRPVDWGLRRLS | 1.37 ± 0.62
GTTDIFFLLILFFQVVN | 1.14 ± 0.73
GVDKASYPHSFGEQWLSLSL | 0.844 ± 0.97
GVKLYDFVNRCCVMNLLAVK | 0.428 ± 0.47
GVMPNCKKNLHEPALERFNT | -0.413 ± 0.61
GVNFFGCHCVHN | -0.113 ± 0.41
GVQAVNVEVVNEVCLVKEAT | -0.153 ± 0.46
GVRGVSKMECKYQKFIGLTG | 1.78 ± 0.61
GVRVCSMPFAALLAFLLYFS | -1.09 ± 0.76
GVSMGKESMIV | -0.671 ± 0.72
GVSMNSFLICDFDIWQIKTR | -0.162 ± 0.22
GVTVKGASS | -0.734 ± 0.66
GVTWLSEISV | 0.885 ± 0.73
GVWYCYLGVN | -0.431 ± 1.4
GWHTQVMVVTSVSMLGVWT | 0.487 ± 0.24
GWLLYDSPSRFTYC | -0.531 ± 0.37
GWSNNCAFNLQFGISKKN | 1.54 ± 0.47
GWTLPNRRLWHFFMTIT | 0.654 ± 0.45
GYFIVALRFSSLVEVNATSC | 0.658 ± 0.77

Substance | amyloid nucleation score
GYGLSAL | 1.08 ± 0.73
GYLIYSWVLVNWNSGLEINK | 2.62 ± 0.17
GYMCIVLIRG | 1.12 ± 0.71
GYMFPVFSMIGFLNTNVWSK | 3.27 ± 0.15
GYRGLYY | 1.38 ± 0.6
GYRTLLS | 0.372 ± 1.4
GYVDGSRGRGAPNGAMCRCF | 0.205 ± 0.76
HARIS | -0.313 ± 0.79
HCAYRFASENEMKGG | 0.321 ± 0.65
HCLAGNLDLAMVRVRSPTCL | 0.032 ± 0.59
HCSFSWGYRWLGWTTKSGNM | 1.31 ± 0.4
HCVLRFCNPG | inactive
HCVRI | 1.4 ± 0.6
HDFPIR | inactive
HDSLMRSGSFNTSVTVEY | 0.843 ± 0.55
HEGGQWLRKLTGPLGLRFMR | 0.216 ± 0.48
HERDIQSSIGDWNKLSKPCN | -0.418 ± 0.31
HFCHFVGLNPVQKRRVVPWG | inactive
HFFVVNQSYPNHFHLLGI | 5.05 ± 0.094
HFGKRHSYRYLDDTCAQNLY | -0.811 ± 0.63
HFMAI | -1.55 ± 0.8
HFVCYNCWGYICTVCLTSRE | 8.228 ± 0.065
HFVRFRRAMSRHGRVAST | -0.979 ± 0.75
HGCKYAKGASDLYDIMCFCW | 0.602 ± 0.38
HGCSSVILVGMRAEEIFLYY | 2.71 ± 0.14

Substance | amyloid nucleation score
HGTVNLIYVNEI | 0.133 ± 0.67
HHGSCFEGLFCSETFCLAIM | 6.495 ± 0.055
HHSRIFICDLRWSSTVRHCK | 1.39 ± 0.16
HIFVMIYVLMEDGSKKLTSM | 0.99 ± 0.85
HIGGTFVWLEFPCKWGLTED | 4.46 ± 0.069
HITDYRVRT | 1.27 ± 0.41
HKNEYSGFKRSKLLYRARMR | 0.964 ± 0.68
HKTFGCCLDLWHIMPHFIIL | -0.396 ± 0.37
HLAINNADTALGSYKGQVSV | 2.36 ± 0.11
HLGNSSNQIILHQCI | 4.67 ± 0.059
HLIKRYGYSCVRWVC | 0.003 ± 0.53
HLILGLL | -0.54 ± 0.47
HLMMTLFFVPVLMCITFTDG | -0.032 ± 0.3
HLNNSLLELVNCRKYSIKGC | 0.088 ± 0.35
HLPGFNIVSYVQSESIMF | -0.08 ± 0.2
HLRRYMDRYRRGQYGFSYFW | 1.09 ± 0.64
HLRWQMDWCSHNNGMDVMRG | 3.71 ± 0.12
HLVDFMDE | 0.105 ± 0.3
HLVLFYVSLITFARYSFMGV | -0.058 ± 0.3
HLWRVRLV | 0.01 ± 0.61
HLYMDSSILRLVEYTWCFKV | 0.085 ± 0.96
HMLWSFLLITWYGMICRKGG | -0.15 ± 0.39
